We go through 2 substances from patent US20100293752A1.

For experiment [1], the target named is CFP from CFP-empty plasmid (pECFP). Put plainly: FRET by acceptor photobleaching, negative control: cotransfection of CFP- and YFP-empty plasmids.
Experiment [2] deals with CFP-tagged CD44 (human full length CD44s cDNA fused in frame into pECFP, expressed in MDA-MB231 cells) (human) (UniProt P16070). The experiment can be described thus: FRET by acceptor photobleaching, confocal microscopy, MDA-MB231 cells coexpressing CFP-CD44 and YFP-OPN.
Experiment [3] shares this target. The experiment can be described thus: FRET by acceptor photobleaching in MDA-MB231 cells, in the presence of blocking antibody to αvβ3 integrin.
For experiment [4] the target is unchanged. Put plainly: FRET by acceptor photobleaching in MDA-MB231 cells, in the presence of the mutated OPN-R3 RNA aptamer (control).

Take YFP from YFP-empty plasmid (pEYFP): the FRET efficiency in experiment [1] worked out at 0.23%.

With “YFP-tagged OPN (human OPN-a cDNA fused in frame into pEYFP, expressed in MDA-MB231 cells) (from UniProt P10451 1-314) (ligand)”, the FRET efficiency in experiment [2] was determined as 24.2%; in experiment [3] it was 19.6%; in experiment [4] it was 23.1%.
